Test [1] concerns the target linear tetra-ubiquitin (UniProt P0CG48 1-76; P0CG48 1-76; P0CG48 1-76; P0CG48 1-76). The experiment in a line: co-IP.
Test [2] has as its target linear hepta-ubiquitin (UniProt P0CG48 1-76; P0CG48 1-76; P0CG48 1-76; P0CG48 1-76; P0CG48 1-76; P0CG48 1-76; …). Kind of test: co-IP.

linear hepta-ubiquitin, sequence (P0CG48 1-532, one chain of several): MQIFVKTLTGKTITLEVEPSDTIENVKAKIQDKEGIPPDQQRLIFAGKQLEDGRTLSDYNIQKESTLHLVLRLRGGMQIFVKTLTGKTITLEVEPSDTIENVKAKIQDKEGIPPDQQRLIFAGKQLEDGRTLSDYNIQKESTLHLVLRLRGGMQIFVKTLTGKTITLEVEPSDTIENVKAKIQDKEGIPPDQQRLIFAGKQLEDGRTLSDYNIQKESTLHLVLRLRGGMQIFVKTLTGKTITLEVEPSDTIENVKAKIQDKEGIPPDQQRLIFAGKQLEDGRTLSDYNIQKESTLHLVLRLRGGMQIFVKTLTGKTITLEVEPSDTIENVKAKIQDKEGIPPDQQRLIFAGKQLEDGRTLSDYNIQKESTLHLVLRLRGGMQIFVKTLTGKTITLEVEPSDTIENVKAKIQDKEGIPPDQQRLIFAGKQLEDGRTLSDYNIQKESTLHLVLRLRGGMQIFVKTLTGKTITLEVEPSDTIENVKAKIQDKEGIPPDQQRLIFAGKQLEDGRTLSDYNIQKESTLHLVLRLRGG
linear tetra-ubiquitin, sequence (P0CG48 1-304, one chain of several): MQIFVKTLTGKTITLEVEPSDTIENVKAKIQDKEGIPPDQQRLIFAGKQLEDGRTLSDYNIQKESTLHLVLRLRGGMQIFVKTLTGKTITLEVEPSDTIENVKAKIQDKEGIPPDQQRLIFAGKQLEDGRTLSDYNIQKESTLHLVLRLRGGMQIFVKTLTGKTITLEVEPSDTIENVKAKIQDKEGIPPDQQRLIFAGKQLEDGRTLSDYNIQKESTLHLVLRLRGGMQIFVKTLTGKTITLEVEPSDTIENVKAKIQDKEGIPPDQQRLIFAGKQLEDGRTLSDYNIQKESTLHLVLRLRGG

B1: HA-tagged N4BP1 (full length) (natural protein, human, UniProt O75113 1-896, looked up)
chain: MAARAVLDEFTAPAEKAELLEQSRGRIEGLFGVSLAVLGALGAEEPLPARIWLQLCGAQEAVHSAKEYIKGICEPELEERECYPKDMHCIFVGAESLFLKSLIQDTCADLCILDIGLLGIRGSAEAVVMARSHIQQFVKLFENKENLPSSQKESEVKREFKQFVEAHADNYTMDLLILPTSLKKELLTLTQGEENLFETGDDEVIEMRDSQQTEFTQNAATGLNISRDETVLQEEARNKAGTPVSELTKQMDTVLSSSPDVLFDPINGLTPDEEALSNERICQKRRFSDSEERHTKKQFSLENVQEGEILHDAKTLAGNVIADLSDSSADSENLSPDIKETTEEMEYNILVNFFKTMGYSQEIVEKVIKVYGPSTEPLLLLEEIEKENKRFQEDREFSAGTVYPETNKTKNKGVYSSTNELTTDSTPKKTQAHTQQNMVEKFSQLPFKVEAKPCTSNCRINTFRTVPIEQKHEVWGSNQNYICNTDPETDGLSPSVASPSPKEVNFVSRGASSHQPRVPLFPENGLHQQPEPLLPNNMKSACEKRLGCCSSPHSKPNCSTLSPPMPLPQLLPSVTDARSAGPSDHIDSSVTGVQRFRDTLKIPYKLELKNEPGRTDLKHIVIDGSNVAITHGLKKFFSCRGIAIAVEYFWKLGNRNITVFVPQWRTRRDPNVTEQHFLTQLQELGILSLTPARMVFGERIASHDDRFLLHLADKTGGIIVTNDNFREFVNESVSWREIITKRLLQYTFVGDIFMVPDDPLGRSGPRLEEFLQKEVCLRDMQPLLSALPNVGMFDPSFRVPGTQAASTSHQPPTRIQGAPSSHWLPQQPHFPLLPALPSLQQNLPMPAQRSSAETNELREALLKIFPDSEQRLKIDQILVAHPYMKDLNALSAMVLD
Regarding B1, the binding result in test [1] and in test [2] was “binds” throughout.

Source of the values: article doi:10.1101/2020.10.21.349357 (bioRxiv, 2020).
